Results on 20 molecules are retold here after US20250026813A1 (published 2025).

Assay [1] has as its target SARS-CoV-2 spike protein bearing furin mutation and truncation in retention sequence, on pseudovirus (SARS-CoV-2, UniProt P0DTC2 14-1255). The assay is described as follows: cell-based or functional assay.
Assay [2] has as its target full-length stabilised spike trimer protein of SARS-CoV-2 virus (in-house, soluble ECD with trimeris (SARS-CoV-2, UniProt P0DTC2 14-1208; P10104 458-484).
Assay [3] addresses T1, S1 subunit of the SARS-CoV-2 spike protein (Sino Biological 40591-V08H), His tag (SARS-CoV-2, UniProt P0DTC2 16-685).
T1 construct: domain: S1 subunit

B1: YANG-1301 (antibody, V domains shown)
VH: QVQLVESGGGVVQPGRSLRLSCAASGFTFSSYGMHWVRQAPGKGLEWVAVIWYDGSNKFYADSVKGRFTISRDNSKNTLYLQMNSLKAEDTAVYYCARDTWIGESDTSWLDPWGQGTLVTVSS
VL: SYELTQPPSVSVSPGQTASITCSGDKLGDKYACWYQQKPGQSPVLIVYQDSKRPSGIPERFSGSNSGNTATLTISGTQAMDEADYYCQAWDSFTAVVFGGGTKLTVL
For the molecule B1, the “pseudovirus neutralisation IC50” value in assay [1] was found to be 0.52 nM.

B2: IMPI-032 (antibody, V domains shown)
VH: QVQLQESGPGLVKPSGTLSLTCAVSGGSISSNKWWSWVRQPPGKGLEWIGEIDHSGSTMYNPSLKSRVTISVDKSKNQFSLKLNSVTAADTAVYYCTGEGYNWNYWGQGTRVTVSS
VL: DVVMTQSPLSLPVTLGQTASISCRSSQSLLYTDGNTYLSWFQQRPGQSPRRLIYKVSKWESGVPDRFSGSGSGTDFTLKISRVEAEDVGIYYCMQGTHWPLTFGGGTKVEIK
B2: the “HTRF deltaF” value is 218 deltaF in assay [2] and -8.9 deltaF in assay [3].

B3: YANG-2107 (antibody, V domains shown)
VH: QVQLQESGPGLVKPSGTLSLTCAVSGGSIRSSNWWIWVRQSPGKGLEWIGEIYHGGNTNYNPSLKSRVTLSVDKSKNQFSLKLSSVTAADTAVYYCARALYDIGGVFDIWGQGTMVTVSS
VL: QSALTQPASVSGSPGQSISISCTGTSSDIGGYNYVSWYQQHPGKAPKLMIYDVSERPSGVSNRFSGSKSGNTASLTISGLQAEDEGDYYCCSYAANSNVVFGGGTKLSVL
Consider B3, for which the “pseudovirus neutralisation IC50” value in assay [1] came to 0.3 nM.

B4: YANG-2108 (antibody, V domains shown)
VH: QVQLQESGPGQVKPSGTLSLTCAVSGGSIRSSNWWIWVRQPPGKGLEWIGEIYHGGNTNYSPSLKSRVSISVDKSKNHFSLNLTSVTAADTAVYYCARALYDVGGVFDIWGQGTMVTVSS
VL: QSALTQPASVSGSPGQSITISCTGSSSDVGGYNYVSWYQQHPGKAPKLMIYDVSERPSGVSNRFSGSKSGNTASLTISGLQAEDEGDYYCCSYAANSNVVFGGGTKLSVL
In the case of B4, the “pseudovirus neutralisation IC50” value in assay [1] was found to be 0.27 nM.

B5: YANG-2301 (antibody, V domains shown)
VH: QVHLIQSGAEVKKPGASVKVSCKVSGYTLIEVSVHWVRQAPGKGLEWMGGFDPEAAETIYAQKFQGRVTMTEDTSTDTAYMDLSSLKSEDSAVYYCAIGPAVTGRNSGEYYYYYGMDVWGQGTTVTVAS
VL: EIVMTQSPATLSVSPGERATLSCRASQSVNSNLAWYQQKPGQAPRLLIYAVSTRATGLPARFSGSGSGTEFTLTISSLQSEDFVVYYCHQYNNWPLTFGGGTKVEIK
On to B5, for which the “pseudovirus neutralisation IC50” value in assay [1] came out at 0.53 nM.

B6: YANG-2203 (antibody, V domains shown)
VH: QVQLVQSGAEVKQPGASVKVSCRASGYALTSFYVHWVRQAPGQGLEWMGIIKPSGGDTIYAQNLQGRVTMTRDTSTNTFYVELSSLRSEDTALYYCAISGNTRAFEIWGQGTMVTVSL
VL: QSVLTQPPSVSAAPGQKVTISCSGSSSNIGNNFVSWYQQLPGMVPKLLIYANNKRPSGIPDRFSGSRSGTSATLGITGLQTGDEADYYCGTWDSSRSAVLFGGGTKMTVL
Turning to B6, the “pseudovirus neutralisation IC50” value in assay [1] stood at 5.45 nM.

B7: YANG-2205 (antibody, V domains shown)
VH: QIQLVQSGAEVKKPGASVKFSCKTSGYTFTSYYMVWVRQAPGQGLEWMGIIKPSGGNTIYAQKFQGRVTMTRDTSTNTVYMDLSSLRSEDTAVYYCARTGDRAFDVWGHGTMITVSS
VL: QSVLTQPPSVSAAPGQKVTISCSGSSSNIGNNFVSWYQQFPGTAPKLLIYDNNKRPSGIPDRFSGSKSGTSATLGITGLQTGDEADYYCGTWDSSLGAGVFGGGTKLTVL
For B7, the “pseudovirus neutralisation IC50” value in assay [1] is 3.35 nM.

B8: YANG-2207 (antibody, V domains shown)
VH: QMQLVQSGAEVKKPGASVKISCKTSGYTFTNYYMVWVRQAPGQGLEWMGIIKPSGGNTIYAQKFQGRVTMTRDTSTNTVYLDLSSLRSEDTAVYYCARTGNRAFDVWGHGTMVTVSS
VL: QSVLTQPPSVSAAPGQKVTISCSGSSSNIGNNFVSWYQQFPGTAPKLLIYDNNKRPSGIPDRFSGSKSGTSATLGITGLQTGDEADYYCGTWDSSLGAGVFGGGTKLTVL
Regarding B8, the “pseudovirus neutralisation IC50” value in assay [1] is 2.59 nM.

B9: YANG-2204 (antibody, V domains shown)
VH: QMQLVQSGAEVKKPGASVKFSCKTSGYTFTNYYMVWVRQAPGQGLEWMGIIKPSGGNTIYAQKFQGRVTMTRDTSTNTVYMDLTSLRSEDTAVYYCARTGDRAFDVWGQGTMVTVSS
VL: QSVLTQPPSVSAAPGQKVTISCSGSSSNIGNNYVSWYQQLPGTAPKLLIYDNNKRPSGIPDRFSGSKSGTSATLGITGLQTGDEADYYCGTWDSSLGAGVFGGGTKLTVL
On to B9, for which, in assay [1], the “pseudovirus neutralisation IC50” value worked out at 3.3 nM.

B10: YANG-2206 (antibody, V domains shown)
VH: QIQLVQSGAEVKKPGASVKLSCKTSGYTFTSYYMVWVRQAPGQGLEWMGIIKPSGGNTIFAQKFQGRVTMTRDTSTNTVYMDLNSLRSEDTAVYYCARTGDRAFDVWGHGTMVTVSS
VL: QSVLTQPPSVSAAPGQKVTISCSGSSSNIGNNYVSWYQQFPGTAPKLLIYDNNKRPSGIPDRFSGSKSGTSATLGITGLQTGDEADYYCGTWDSSLGAGVFGGGTKVTVL
In the case of B10, the “pseudovirus neutralisation IC50” value in assay [1] was found to be 3.96 nM.

B11: YANG-2111 (antibody, V domains shown)
VH: GVQLVESGGGLVQPGRSLRLSCAASGFTFDDYALHWVRQVPGKGLEWVSSISWNSDDLGYADSVEGRFTISRDNAKNSLYLQMSSLRTEDTALYYCVKDTRAHYDILAGYRGLDSWGQGTLVTVSS
VL: DIVMTQSPLSLPVTPGEPASISCRSTQSLLHSNGYNFLDWYLQKPGQSPQLLIYLGSNRASGVPDRFSGSGSGTDFSLKISRVEAEDIGIYYCIQGLQTPITFGQGTRLEIK
For the molecule B11, the “pseudovirus neutralisation IC50” value in assay [1] stood at 1.33 nM.

B12: IMPI-059 (antibody, V domains shown)
VH: EVQLVESGGGLIQPGGSLRLSCAASGFTVSSIYMSWVRQAPGKGLEWVSIIYSRGSTDYADSVKGRFTISRDISKNTLYLQMNSLRAEDTAVYYCARDGTMVRGVHAFDIWGQGTMVTVSS
VL: DIQMTQSPPSLSASIGDRVTITCQASQDISNYLNWYQQKPGKAPKLLIYDASNLETGVPSRFSGSGSGTDFTLTISNLQPEDIVTYYCQQYDNLPSSFGQGTKLEIK
Consider B12, for which the “HTRF deltaF” value in assay [2] amounted to 403 deltaF; in assay [3], 569 deltaF.

B13: YANG-1112 (antibody, V domains shown)
VH: QITLKESGPTLVKPTQTLTLTCTFSGFSLSTGGVAVGWIRQPPGKALEWLAIIYWDDDKRYSPSLKSRLTITKDTSKNQVVLTMTNMDPVDTATYYCAHWGKDSFDIWGQGTMVTVSS
VL: SYELTQPPSVSVSPGQTARITCSGDALPRKYAYWYQQKSGQAPVLVIYEDNNRPSGIPERFSGSSSGTTATLTVSGAQVEDEADYYCYSTDTSGYVVFGGGTKLTVL
Take B13: in assay [1], the “pseudovirus neutralisation IC50” value was 0.52 nM.

B14: YANG-1401 (antibody, V domains shown)
VH: QVHLQESGPGLVKPSGTLSLTCAVSGGSFSQINWWSWVRQSPGKGLEWIGEIYHSGSTNYNPSLKSRVTMSVDKSKNQFSLALNSVTAADTAVYYCARGYYGDNWFDSWGQGTLVTVSS
VL: DIQMTQSPSSLSASIGDRVTITCRASQGISNWLVWYQQKPEKAPKSLIYAASSLQSGVPSRFSGSGSGTDFTLTISSLHPEDFATYYCQQYSDYPLTFGGGTKVEIK
As for B14, the “pseudovirus neutralisation IC50” value in assay [1] came to 0.53 nM.

B15: IMPI-027 (antibody, V domains shown)
VH: QVQLQESGPGLVKPSQTLSLTCTVSGGSISSYGYYWNWIRQHPGKGLEWIGYIYYSGSTYYNPSLKSRVTISVDTSKNQLSLRLNSVSAADTAVYYCARDFGGNSNYFDYWGQGTLVTVSS
VL: AIQLTQSPSSLSASVGDRVTITCRTSQGISSALAWYQQKPGKAPKLLIYDASSLESGVPSRFSGSGSGTDFTLTISSLQPEDFATYYCQQFNSYPLTFGGGTKVEIK
Take B15: the “HTRF deltaF” value is 800 deltaF in assay [2] and 755 deltaF in assay [3].

B16: IMPI-022 (antibody, V domains shown)
VH: EVQLVESGGGLVQPGRSLRLSCAASGFTFDDYAMHWVRQAPGKGLEWVSGITWNSGSIGYADSVKGRFTISRDNAKNSLYLHMNSLRVEDTALYYCAKDLQGDYYYYGVDVWGQGTTVTVSS
VL: AIQLTQSPSSLSASVGDRVTITCRASQGISSALAWYQQKPGKAPKLLLYDASSLVSGVPSRFSGSRSGTDFTLTISSLQPEDFATYYCQQFISYPLTFGGGTRVEIK
On to B16, for which the “HTRF deltaF” value in assay [2] was 483 deltaF; in assay [3], -5.8 deltaF.

B17: IMPI-033 (antibody, V domains shown)
VH: QVQLQESGPGLVKPSQTLSLTCTVSGGSISSYGYYWSWIRQHPGKGLEWIGYIYYSGSTYYNPSLKSRVTMSVDTSKNQLSLRLNSVSAADTAVYYCARDFGGNSNYFDYWGQGTLVTVSS
VL: AIQLTQSPSSLSASVGDRVTITCRASQGISSALAWYQQKPGKAPNLLIYDASSLESGVPSRFSGSGSGTDFTLTISSLQPEDFATYYCQQFNSSPLTFGGGTKVEIK
As for B17, the results for the “HTRF deltaF” value in assay [2] and in assay [3] were 884 deltaF and 929 deltaF, respectively.

B18: YANG-1302 (antibody, V domains shown)
VH: QVQLVESGGGAVQPGRSLRLSCRASGFTFSSFGMNWVRQVPGKGLVWVAGIWYDGRNKYYADSVKGRFTISRENSKNMLYLQMNSLRAEDTAVYYCARDQDSGFDGNWFGPWGQGTMVTVSS
VL: SYELTQPPSMSVSPGQTASITCSGDNLGDKYVCWYQQRPGQSPVMVIFQDSTRPSGIPERFSGSNSGNTATLTISGTQAMDEADYYCQAWDSNTAVFGGGTKLTVL
Regarding B18, the “pseudovirus neutralisation IC50” value in assay [1] amounted to 0.23 nM.

B19: IMPI-037 (antibody, V domains shown)
VH: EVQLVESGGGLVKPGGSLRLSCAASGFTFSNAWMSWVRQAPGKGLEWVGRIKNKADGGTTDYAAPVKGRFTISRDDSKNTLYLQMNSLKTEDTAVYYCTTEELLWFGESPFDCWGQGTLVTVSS
VL: DIQLTQSPSFLSASVGDRVTITCWASQGINSYLAWYQQKPGKAPKLLIYAASTLQSGVPSRFSGSGSGTEFTLTISSLQPEDFTTYYCQQFNDYPRTFGPGTKVEIK
For B19, the results for the “HTRF deltaF” value in assay [2] and in assay [3] were 557 deltaF and 626 deltaF, respectively.

B20: YANG-2208 (antibody, V domains shown)
VH: QIQLVQSGAEVRKPGASVRFSCKTSGYIFTNYYMVWVRQAPGQGLEWMGIIKPSGGNTIYAQKFQGRVTMTRDTSTNTVYMDLNNLRSEDTAVYFCARTGDRAFDVWGQGTMVTVSS
VL: QSVLTQPPSMSAAPGQKVTISCSGNSSNIGNNFVSWYRQFPGTAPKLLIYDNNKRPSGIPDRFSGSKSGTSATLGITGLQTGDEADYYCGTWDSSLSAGVFGGGTKLTVL
For the molecule B20, in assay [1], the “pseudovirus neutralisation IC50” value was 4.68 nM.
